Test results: patent US20240018237A1 (SICHUAN KELUN BIOTECH BIOPHARMACEUTICAL, published 2024)

What was measured:
[1] = target: T1, human ROR1 (full-length, on the cell surface) (human, UniProt Q01973 30-937); assay: flow cytometry, Jeko-1 cells
T1 construct: whole, on cells; the tumour cell lines carry their own ROR1; also called Ba/F3-ROR1 cells; Jeko-1
Procedure: (§1) The affinities of the anti-human ROR1 humanized antibodies to Ba/F3-ROR1, Jeko-1, HT-29 and A549 cells were detected by flow cytometry. The specific experimental steps were as follows: the BaBF3-ROR1, Jeko-1, HT-29 and A549 cells were incubated with the purified humanized antibodies of different concentration gradients on ice for 30 minutes, and the anti-ROR1 antibody UC961 with human IgG1 and the anti-TNP antibody were used as positive and negative controls, respectively.

[2] = target: T1, human ROR1 (full-length, on the cell …); assay: flow cytometry, A549 cells
Procedure: as §1

[3] = target: T1, human ROR1 (full-length, on the cell …); assay: flow cytometry, HT-29 cells
Procedure: as §1

[4] = target: T1, human ROR1 (full-length, on the cell …); assay: flow cytometry, Ba/F3-ROR1 cells
Procedure: as §1

T1 sequence (Q01973 30-937): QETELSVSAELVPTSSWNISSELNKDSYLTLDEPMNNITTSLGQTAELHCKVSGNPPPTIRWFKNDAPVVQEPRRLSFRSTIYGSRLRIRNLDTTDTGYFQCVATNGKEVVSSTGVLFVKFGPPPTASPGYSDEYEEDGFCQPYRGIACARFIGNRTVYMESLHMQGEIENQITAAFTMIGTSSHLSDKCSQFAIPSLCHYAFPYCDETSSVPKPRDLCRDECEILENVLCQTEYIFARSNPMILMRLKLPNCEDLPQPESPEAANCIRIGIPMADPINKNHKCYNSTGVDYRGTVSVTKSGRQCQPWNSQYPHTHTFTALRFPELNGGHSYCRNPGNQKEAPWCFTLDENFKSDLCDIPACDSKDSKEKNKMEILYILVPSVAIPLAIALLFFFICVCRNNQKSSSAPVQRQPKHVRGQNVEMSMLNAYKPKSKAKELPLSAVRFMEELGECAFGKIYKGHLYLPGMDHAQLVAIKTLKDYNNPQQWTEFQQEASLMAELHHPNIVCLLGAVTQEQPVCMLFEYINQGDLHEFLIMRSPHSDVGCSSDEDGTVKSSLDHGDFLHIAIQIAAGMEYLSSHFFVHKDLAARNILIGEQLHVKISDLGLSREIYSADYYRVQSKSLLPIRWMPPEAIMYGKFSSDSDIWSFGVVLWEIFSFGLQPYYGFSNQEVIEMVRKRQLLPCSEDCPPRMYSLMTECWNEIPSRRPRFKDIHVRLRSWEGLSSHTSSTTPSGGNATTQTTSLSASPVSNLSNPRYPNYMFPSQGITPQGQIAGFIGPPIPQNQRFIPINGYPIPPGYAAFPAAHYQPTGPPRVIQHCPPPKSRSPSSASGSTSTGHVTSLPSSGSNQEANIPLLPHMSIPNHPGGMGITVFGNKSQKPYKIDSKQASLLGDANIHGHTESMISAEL

Binder	EC50 [1] [nM]	EC50 [2] [nM]	EC50 [3] [nM]	EC50 [4] [nM]
3D8-Hu46 (antibody, human IgG1, kappa, V domains shown, humanized, human IgG1 / kappa) VH: EVQLVESGGGLVQPGGSLRLSCAASGFTFSSYAMSWVRQAPGKGLEWVSSINSGGSTYYPDSVKGRFTISRDNSKNTLYLQMNSLRAEDTAVYYCARVNYYGYGDYAMDYWGQGTLVTVSS VL: DIQMTQSPSSLSASVGDRVTITCQASQDINSYLSWFQQKPGKSPKTLIYRANRLVTGVPSRFSGSGSGTDYTFTISSLQPEDIATYYCLQYDEFPYTFGGGTKLEIKR	0.08	0.2	0.35	0.39
3D8-HuC54 (antibody, human IgG1, kappa, V domains shown, humanized, human IgG1 / kappa) VH: EVQLVESGGGLVQPGGSLRLSCAASGFTFSSYAMSWVRQAPGKGLEWVSSINSGGSTYYPDSVKGRFTISRENAKNSLYLQMNSLRAGDTAVYYCARVNYYGYGDYAMDYWGQGTLVTVSS VL: DIQMTQSPSSLSASVGDRVTITCQASQDISNYLTWFQQKPGKSPKTLIHRANRLVTGVPSRFSGSGSGTDFTFTISSLQPEDIATYYCLQYDEFPYTFGGGTKVEIKR	0.03	0.23	0.19	0.23
3D8-HuC44 (antibody, human IgG1, kappa, V domains shown, humanized, human IgG1 / kappa) VH: EVQLVESGGGLVQPGGSLRLSCAASGFTFSSYAMSWVRQAPGKGLEWVSSINSGGSTYYPDSVKGRFTISRDNSKNTLYLQMNSLRAEDTAVYYCARVNYYGYGDYAMDYWGQGTLVTVSS VL: DIQMTQSPSSLSASVGDRVTITCQASQDISNYLTWFQQKPGKSPKTLIHRANRLVTGVPSRFSGSGSGTDFTFTISSLQPEDIATYYCLQYDEFPYTFGGGTKVEIKR	0.03	0.18	0.16	0.28
3D8-Hu85 (antibody, human IgG1, kappa, V domains shown, humanized, human IgG1 / kappa) VH: EVQLVESGGGLVQPGGSLRLSCAASGFTFSSYAMSWVRQAPEKRLEWVSSISSGGSTYYPDSVKGRFTISRDNSKNTLYLQMNSLRAEDTAVYYCARVNYYGYGDYAMDYWGQGTLVTVSS VL: DIQMTQSPSSLSASVGDRVTITCQASQDINSYLSWFQQKPGKAPKTLIYRANRLVTGVPSRFSGSGSGTDFTFTISSLQPEDIATYYCLQYDEFPYTFGGGTKLEIKR	0.11	0.45	0.25	0.25
3D8-Hu57 (antibody, human IgG1, kappa, V domains shown, humanized, human IgG1 / kappa) VH: EVQLVESGGGLVQPGGSLRLSCAASGFTFSSYAMSWVRQAPGKGLEWVSSINSGGSTYYPDSVKGRFTISRENAKNSLYLQMNSLRAGDTAVYYCARVNYYGYGDYAMDYWGQGTLVTVSS VL: DIQMTQSPSSLSASVGDRVTITCQASQDISNYLSWFQQKPGKSPKTLIYRANRLVTGVPSRFSGSGSGTDYTFTISSLQPEDIATYYCLQYDEFPYTFGGGTKLEIKR	0.13	0.27	0.28	0.37
3D8-Hu27 (antibody, human IgG1, kappa, V domains shown, humanized, human IgG1 / kappa) VH: EVQLVESGGGLVQPGGSLRLSCAASGFTFSSYAMSWVRQAPGKGLEWVASINSGGSTYYPDSVKGRFTISRDNAKNSLYLQMNSLRAEDTAVYYCARVNYYGYGDYAMDYWGQGTLVTVSS VL: DIQMTQSPSSLSASVGDRVTITCQASQDISNYLSWFQQKPGKSPKTLIYRANRLVTGVPSRFSGSGSGTDYTFTISSLQPEDIATYYCLQYDEFPYTFGGGTKLEIKR	0.04	0.91	0.27	0.2
3D8-Hu56 (antibody, human IgG1, kappa, V domains shown, humanized, human IgG1 / kappa) VH: EVQLVESGGGLVQPGGSLRLSCAASGFTFSSYAMSWVRQAPGKGLEWVSSINSGGSTYYPDSVKGRFTISRENAKNSLYLQMNSLRAGDTAVYYCARVNYYGYGDYAMDYWGQGTLVTVSS VL: DIQMTQSPSSLSASVGDRVTITCQASQDINSYLSWFQQKPGKSPKTLIYRANRLVTGVPSRFSGSGSGTDYTFTISSLQPEDIATYYCLQYDEFPYTFGGGTKLEIKR	0.09	0.3	0.29	0.33
3D8-Hu86 (antibody, human IgG1, kappa, V domains shown, humanized, human IgG1 / kappa) VH: EVQLVESGGGLVQPGGSLRLSCAASGFTFSSYAMSWVRQAPEKRLEWVSSISSGGSTYYPDSVKGRFTISRDNSKNTLYLQMNSLRAEDTAVYYCARVNYYGYGDYAMDYWGQGTLVTVSS VL: DIQMTQSPSSLSASVGDRVTITCQASQDINSYLSWFQQKPGKSPKTLIYRANRLVTGVPSRFSGSGSGTDYTFTISSLQPEDIATYYCLQYDEFPYTFGGGTKLEIKR	0.05	0.28	0.28	0.3
3D8-Hu25 (antibody, human IgG1, kappa, V domains shown, humanized, human IgG1 / kappa) VH: EVQLVESGGGLVQPGGSLRLSCAASGFTFSSYAMSWVRQAPGKGLEWVASINSGGSTYYPDSVKGRFTISRDNAKNSLYLQMNSLRAEDTAVYYCARVNYYGYGDYAMDYWGQGTLVTVSS VL: DIQMTQSPSSLSASVGDRVTITCQASQDINSYLSWFQQKPGKAPKTLIYRANRLVTGVPSRFSGSGSGTDFTFTISSLQPEDIATYYCLQYDEFPYTFGGGTKLEIKR	0.07	0.22	0.23	0.29
3D8-Hu87 (antibody, human IgG1, kappa, V domains shown, humanized, human IgG1 / kappa) VH: EVQLVESGGGLVQPGGSLRLSCAASGFTFSSYAMSWVRQAPEKRLEWVSSISSGGSTYYPDSVKGRFTISRDNSKNTLYLQMNSLRAEDTAVYYCARVNYYGYGDYAMDYWGQGTLVTVSS VL: DIQMTQSPSSLSASVGDRVTITCQASQDISNYLSWFQQKPGKSPKTLIYRANRLVTGVPSRFSGSGSGTDYTFTISSLQPEDIATYYCLQYDEFPYTFGGGTKLEIKR	0.17	0.55	0.27	0.21
3D8-Hu47 (antibody, human IgG1, kappa, V domains shown, humanized, human IgG1 / kappa) VH: EVQLVESGGGLVQPGGSLRLSCAASGFTFSSYAMSWVRQAPGKGLEWVSSINSGGSTYYPDSVKGRFTISRDNSKNTLYLQMNSLRAEDTAVYYCARVNYYGYGDYAMDYWGQGTLVTVSS VL: DIQMTQSPSSLSASVGDRVTITCQASQDISNYLSWFQQKPGKSPKTLIYRANRLVTGVPSRFSGSGSGTDYTFTISSLQPEDIATYYCLQYDEFPYTFGGGTKLEIKR	0.08	0.31	0.29	0.28
3D8-Hu95 (antibody, human IgG1, kappa, V domains shown, humanized, human IgG1 / kappa) VH: EVQLVESGGGLVQPGGSLRLSCAASGFTFSSYAMSWVRQAPEKRLEWVSSISNGGSTYYPDSVKGRFTISRDNSKNTLYLQMNSLRAEDTAVYYCARVNYYGYGDYAMDYWGQGTLVTVSS VL: DIQMTQSPSSLSASVGDRVTITCQASQDINSYLSWFQQKPGKAPKTLIYRANRLVTGVPSRFSGSGSGTDFTFTISSLQPEDIATYYCLQYDEFPYTFGGGTKLEIKR	0.13	0.56	0.36	0.32
3D8-Hu96 (antibody, human IgG1, kappa, V domains shown, humanized, human IgG1 / kappa) VH: EVQLVESGGGLVQPGGSLRLSCAASGFTFSSYAMSWVRQAPEKRLEWVSSISNGGSTYYPDSVKGRFTISRDNSKNTLYLQMNSLRAEDTAVYYCARVNYYGYGDYAMDYWGQGTLVTVSS VL: DIQMTQSPSSLSASVGDRVTITCQASQDINSYLSWFQQKPGKSPKTLIYRANRLVTGVPSRFSGSGSGTDYTFTISSLQPEDIATYYCLQYDEFPYTFGGGTKLEIKR	0.11	0.54	0.3	0.3
3D8-Hu45 (antibody, human IgG1, kappa, V domains shown, humanized, human IgG1 / kappa) VH: EVQLVESGGGLVQPGGSLRLSCAASGFTFSSYAMSWVRQAPGKGLEWVSSINSGGSTYYPDSVKGRFTISRDNSKNTLYLQMNSLRAEDTAVYYCARVNYYGYGDYAMDYWGQGTLVTVSS VL: DIQMTQSPSSLSASVGDRVTITCQASQDINSYLSWFQQKPGKAPKTLIYRANRLVTGVPSRFSGSGSGTDFTFTISSLQPEDIATYYCLQYDEFPYTFGGGTKLEIKR	0.08	0.19	0.2	0.33
3D8-Hu55 (antibody, human IgG1, kappa, V domains shown, humanized, human IgG1 / kappa) VH: EVQLVESGGGLVQPGGSLRLSCAASGFTFSSYAMSWVRQAPGKGLEWVSSINSGGSTYYPDSVKGRFTISRENAKNSLYLQMNSLRAGDTAVYYCARVNYYGYGDYAMDYWGQGTLVTVSS VL: DIQMTQSPSSLSASVGDRVTITCQASQDINSYLSWFQQKPGKAPKTLIYRANRLVTGVPSRFSGSGSGTDFTFTISSLQPEDIATYYCLQYDEFPYTFGGGTKLEIKR	0.04	0.23	0.17	0.33
3D8-Hu26 (antibody, human IgG1, kappa, V domains shown, humanized, human IgG1 / kappa) VH: EVQLVESGGGLVQPGGSLRLSCAASGFTFSSYAMSWVRQAPGKGLEWVASINSGGSTYYPDSVKGRFTISRDNAKNSLYLQMNSLRAEDTAVYYCARVNYYGYGDYAMDYWGQGTLVTVSS VL: DIQMTQSPSSLSASVGDRVTITCQASQDINSYLSWFQQKPGKSPKTLIYRANRLVTGVPSRFSGSGSGTDYTFTISSLQPEDIATYYCLQYDEFPYTFGGGTKLEIKR	0.08	0.2	0.26	0.29
3D8-Hu97 (antibody, human IgG1, kappa, V domains shown, humanized, human IgG1 / kappa) VH: EVQLVESGGGLVQPGGSLRLSCAASGFTFSSYAMSWVRQAPEKRLEWVSSISNGGSTYYPDSVKGRFTISRDNSKNTLYLQMNSLRAEDTAVYYCARVNYYGYGDYAMDYWGQGTLVTVSS VL: DIQMTQSPSSLSASVGDRVTITCQASQDISNYLSWFQQKPGKSPKTLIYRANRLVTGVPSRFSGSGSGTDYTFTISSLQPEDIATYYCLQYDEFPYTFGGGTKLEIKR	0.43	0.58	0.52	0.3
